These results are taken from the supplement of paper PMC12042874.

± gives the uncertainty stated by the source.

The nature of the data set: amyloid nucleation score (Sup35N fusion, yeast selection) (log enrichment); library NNK1; higher = more nucleation; inactive = no reads after selection. Put shortly: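 In psi-negative yeast, Sup35N fusions carrying peptides of 20 random codons were induced with 100 μM copper sulfate for 24 hours. The cells then grew 7 days at 30°C on medium lacking adenine and uracil, and plasmid inserts from input and output were Illumina-sequenced, excluding sequences with under 100 input reads. Nucleation score is the DiMSum log enrichment of output over input reads, centred on the mode score of non-aggregating sequences.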
Substance LFRGFWSERSTVSMLFRSRR came in with an amyloid nucleation score of -0.124 ± 0.83. The value for LFRLIAFWDWLYSWNRFFGW was 0.481 ± 0.43; that for LFRSRRLVCDMKFHWTFLYR was -0.853 ± 0.5; that for LFSWVCIFECLPFKNWSQTV was “inactive”. In turn, LFTIMMQPMGCHPCRPLASQ had an amyloid nucleation score of 0.082 ± 0.52. For LFTTFNNLISVFTVVLNSNQ, the amyloid nucleation score was found to be 6.79 ± 0.076.

Turning to LFVSNMC, the amyloid nucleation score is -1.47 ± 0.91. LFVVFHALTIFYP yielded an amyloid nucleation score of -0.437 ± 1.2.

For the substance LFYSNMIVTVSRSVVRMRGA, the amyloid nucleation score was 0.659 ± 0.79. LGATGIGVYTVGHTFKS returned an amyloid nucleation score of -0.382 ± 0.44.

For LGCYTLESLGEYDNSNNWLL, the amyloid nucleation score was found to be 0.932 ± 0.69.

As to LGDTVCVRYCR, the amyloid nucleation score turned out to be 0.223 ± 0.37.

Regarding LGFACLSIILSRKSKMWDML, the amyloid nucleation score was found to be 2.13 ± 0.11. The value for LGISPVSTGKKVNEDVYSGF was 0.618 ± 0.79; that for LGNCTGRRHV was 2.42 ± 0.36; that for LGNLM was -0.109 ± 0.95. The value for LGTCPYSPPEANN was -0.604 ± 0.5; that for LGVAFQRYVCICEVVSLSRG was 0.523 ± 0.32. Take LGWRSTFCMKYTSQSLSLPR: the amyloid nucleation score was -0.221 ± 0.58. As for LHMLKMICKVVNRVSYS, the amyloid nucleation score was -0.098 ± 0.23.

The substance LHRALGQSSWWARQW displayed an amyloid nucleation score of -0.13 ± 1. Turning to LHRRNSCSIYRLLGFCLLPI, the amyloid nucleation score was 1.25 ± 0.6. The result for LHSNGSD reads “inactive”. Turning to LHTMCGK, the amyloid nucleation score turned out to be 0.03 ± 0.97. In turn, LICAAAKLIHGWGNKWIYVT showed an amyloid nucleation score of -0.368 ± 1.7.

For LIDRCWMAGRAFNLLMF, the amyloid nucleation score was -0.331 ± 0.76.

LIELRIWLLHLPMYGVLESI: the amyloid nucleation score is -0.758 ± 0.39. The result for LIFLKLSSIRYFLMGHY reads 1.43 ± 0.25; that for LIGFSRVSSGFSPFTPAHCR, 2.04 ± 0.14; that for LIGIVKGTTVSRMGNTVIDR, “inactive”.

For the substance LIIRVWLKNQPDTLGKRRRE, the amyloid nucleation score is -0.415 ± 1.4. In turn, LIKRVQLFV yielded an amyloid nucleation score of -0.284 ± 0.4. LILLLFEGFLLP showed an amyloid nucleation score of 0.246 ± 0.63.

LILRLVHKLGLCVPLSGSRG returned an amyloid nucleation score of -0.827 ± 1.7. In turn, LILRVSFN registered an amyloid nucleation score of 2.28 ± 0.16. The value for LINKNSSSAFCVMLGHYWVR was -1.03 ± 0.66; that for LIPCGPLFLFMQTNIDRANM was 7.845 ± 0.044. LISHPFDPLIKVGDIQMYSF registered an amyloid nucleation score of 0.012 ± 0.61. The value for LISLLGSISMGPCIVRVYN was -0.259 ± 0.48; that for LISRIS was 0.303 ± 1; that for LITMGMTRIYILMISDYLKF was 0.701 ± 0.51. LIVMVKV returned an amyloid nucleation score of 0.111 ± 0.33. In the case of LKELYG, the amyloid nucleation score amounted to 0.303 ± 0.65. On to LKFNAP, for which the amyloid nucleation score is -0.14 ± 1.4. Turning to LKIKGGWVFVTSIW, the amyloid nucleation score was -0.008 ± 0.35. As to LKLYINIIVVNYNLLSICSH, the amyloid nucleation score was -0.504 ± 0.24. LKNSRYSKLFIESMTWWLVY: the amyloid nucleation score was 0.087 ± 0.16.

Consider LKNTVHWTADHFRVTSP, for which the amyloid nucleation score is -0.623 ± 0.67. LKRVQCNSDRAMWCVALVLT registered an amyloid nucleation score of 0.314 ± 0.59. Substance LKSLLNSSGVTLGEVLRMGV returned an amyloid nucleation score of -0.091 ± 0.45.

With LKSRGWYCFSNVTMYDLRME, the amyloid nucleation score was 3.42 ± 0.067.

Substance LKSSSCHQTSISHRALFCNL displayed an amyloid nucleation score of -0.373 ± 1.2.

LKYPMGFPDRSL showed an amyloid nucleation score of -0.658 ± 1.1. The value for LKYTVPGLISPGFLGVVDYV was -0.624 ± 0.34.

LLALCCDSLRCYR had an amyloid nucleation score of 0.282 ± 1.2. LLALYCNDPKLEDSTLREFN yielded an amyloid nucleation score of 1.15 ± 0.71. The result for LLAMFKFDNPHILFCSSILL reads 5.62 ± 0.078. Substance LLCFIIILCSRELNVDA displayed an amyloid nucleation score of 0.279 ± 1.2.

In turn, LLDLDVTLIRNHWWFKSLLA yielded an amyloid nucleation score of -0.047 ± 0.41. With LLDMNANECYLPIWWQSEVT, the amyloid nucleation score turned out to be 0.092 ± 0.96. For LLFSKRVLVSWGFDRGGSEE, the amyloid nucleation score was 0.336 ± 0.57. LLGNSLAVSFSFNSLVNHYS had an amyloid nucleation score of 6.02 ± 0.063. In the case of LLKVQGF, the amyloid nucleation score worked out at 1.13 ± 0.51.

LLLVCMHGSFAMYMPLNNRW came in with an amyloid nucleation score of 0.922 ± 0.93. The substance LLMYLLHSCYNVMHCLCLNF had an amyloid nucleation score of 0.128 ± 0.21.

In turn, LLNLHGSLMYLPSDLLGSHS yielded an amyloid nucleation score of 0.156 ± 0.56. Regarding LLNLYWFLSVPDTINLSHER, the amyloid nucleation score is 8.087 ± 0.05.

As to LLQNNCHLYYCLNGLVFRVR, the amyloid nucleation score turned out to be 0.162 ± 0.32.

With LLRVTEYLIIRPCSVFVINR, the amyloid nucleation score was -0.459 ± 0.36.

For LLRWLFCFEWHDSNMSTNII, the amyloid nucleation score was -1.76 ± 2.4. The result for LLSPLTRLYFRKFFSVGKAW reads 0.353 ± 1.2; that for LLSQVTCGMQTVRRNGGIIR, -0.195 ± 0.65; that for LLSRFRNCNKFDVRQSLRQN, 5.328 ± 0.051.

As for LLVKNHMRSQEWPLKNSLTN, the amyloid nucleation score was -1.24 ± 2.4. In turn, LLVSGVRSRKTQRWSFRACS came in with an amyloid nucleation score of 0.634 ± 0.7. LLVVRLNVCRRHMDFKYG: the amyloid nucleation score was -0.419 ± 0.39. Take LLVVVTLAI: the amyloid nucleation score amounted to 0.89 ± 0.51. In the case of LLWRVSPSTLTSAIFKCLHS, the amyloid nucleation score is -0.741 ± 0.86. In turn, LLWTGY registered an amyloid nucleation score of 2.43 ± 0.099. In turn, LMASDVT had an amyloid nucleation score of 0.127 ± 0.43. The result for LMDAEFIMVFTL reads 0.918 ± 0.2; that for LMEIFLNLPPANKNSYNRR, -0.766 ± 2.4.

With LMISGPYWR, the amyloid nucleation score is -0.142 ± 0.56. LMLRLRVLPVA registered an amyloid nucleation score of -0.234 ± 0.26.

Substance LMQSCWSFHYNRLASLLRHT gave an amyloid nucleation score of -0.316 ± 0.88. LMRDSCHDQQVLGCFYMSKL registered an amyloid nucleation score of -0.215 ± 1.2. The value for LMRHMFAWVDFIFSGSTQAC was 1.14 ± 0.97; that for LMSLEHELRVKS was “inactive”; that for LMTLLSSLSPAQSSLPT was 1.27 ± 0.8.

LNGNLVTMEGVLINNSFRVT had an amyloid nucleation score of 0.394 ± 0.24. Take LNGWIVEGLNNADLTRRRWV: the amyloid nucleation score stood at 0.235 ± 0.6. On to LNICGIWGGVVSEGARNVFY, for which the amyloid nucleation score amounted to 0.063 ± 0.33. The result for LNLVRLYVTSKCSLDATSVI reads -0.444 ± 1.2. The result for LNNRE reads 0.805 ± 0.78. LNNYCCYIAKYVYWW returned an amyloid nucleation score of 6.089 ± 0.044. LNRGYAGFSLN showed an amyloid nucleation score of -1.86 ± 1.1. LNRLSFLV yielded an amyloid nucleation score of 0.065 ± 1.2. The value for LNRVLMTIWCTPMSICTYDC was 3.89 ± 0.12; that for LNSGASMLWQTLSYPMSRVR was -0.506 ± 1.2. The substance LNSIMQIQVWIFTLEMMSPM yielded an amyloid nucleation score of -1.07 ± 0.98. Substance LNTQVRVGDKVCLRIFARLL showed an amyloid nucleation score of 0.944 ± 0.9.

In turn, LNVNRWYTISL had an amyloid nucleation score of 0.972 ± 0.25. In turn, LNWVLFADLLWPR had an amyloid nucleation score of 0.212 ± 0.57.

LPAGSDVCLY returned an amyloid nucleation score of 3.23 ± 0.13. LPDIGCFPRTIGCMTQAECG showed an amyloid nucleation score of -0.381 ± 1. LPFSLFSLD: the amyloid nucleation score was 0.308 ± 0.42.

For the substance LPHYNMLSPRIIRTLVVERF, the amyloid nucleation score is 0.694 ± 1.1. The result for LPPARIFEGRSICYFVWYLP reads 0.232 ± 0.7; that for LPSNFCVKLSSTYYQVFG, -2.37 ± 1.8.

In turn, LPSSSPMTRR displayed an amyloid nucleation score of -0.837 ± 1.7.

In turn, LPTIHICLRSAHTRWFA came in with an amyloid nucleation score of -0.438 ± 0.87.

As for LPVFELSHTHSVKSLDGNGQ, the amyloid nucleation score was -0.308 ± 0.33.

In turn, LQERWMAMGGGGQGVVWGFT registered an amyloid nucleation score of 0.305 ± 0.79. With LQGSVIYLNIKSLGEGVWLF, the amyloid nucleation score is 3.44 ± 0.17. In turn, LQIYCAPGFV returned an amyloid nucleation score of 0.38 ± 1.2. With LQKFMLV, the amyloid nucleation score turned out to be 0.638 ± 0.53.

With LQKIMQKISPIFRNRIYVRR, the amyloid nucleation score was -0.327 ± 0.48.

In turn, LQKRANNRRC came in with an amyloid nucleation score of -0.372 ± 0.5. LQPNLMEGAMSSGGTEEVTV: the amyloid nucleation score is -0.565 ± 1.4. The result for LQTIYFLYE reads 2.25 ± 0.13; that for LQYGGQVISLNNR, 1.97 ± 0.72. The value for LRALSYWIPARTPIVEGYAK was -0.333 ± 0.32; that for LRCSLDGFFGLDWLANLILD was -0.115 ± 0.23; that for LREECKVAWYLNGDCVVYCK was “inactive”. LRENPQLGVVTGLTLGSDLP displayed an amyloid nucleation score of 0.19 ± 0.5.

LRFPLARNHTGYQTGVTEFT registered an amyloid nucleation score of -0.526 ± 0.32. Take LRGEDNLLWCVISMTL: the amyloid nucleation score entry is “inactive”. LRHMLIAAFSDWVKYWGCAR had an amyloid nucleation score of 0.194 ± 0.51.

In the case of LRMKVINRNPWVKTLSFVLA, the amyloid nucleation score is -0.297 ± 1.1. LRNVYMCVQWGFMVETGASC yielded an amyloid nucleation score of 3.35 ± 0.16. The substance LRREVINWDQRFSFLKSFTW yielded an amyloid nucleation score of 2.89 ± 0.15. As to LRRLRTSYMLRAVLKLFLQP, the amyloid nucleation score is 0.956 ± 0.58. Turning to LRRLSMA, the amyloid nucleation score entry is “inactive”. On to LRSCMRGGRKYRDS, for which the amyloid nucleation score was -0.903 ± 0.58. In the case of LRSKFRCLSILVRMVIIDCF, the amyloid nucleation score came out at 0.457 ± 0.62. The result for LRSNHWNHTCLHNIRGCS reads 3.42 ± 0.071; that for LRSSWRTSIWHTWLWPYGDW, 0.287 ± 0.87. LRTCIVGKLNQTTEILCGSS yielded an amyloid nucleation score of 1.14 ± 0.73.

In the case of LRTLPHYNV, the amyloid nucleation score amounted to 0.596 ± 1.2. For the substance LRTMGISCDWETFDLDINKG, the amyloid nucleation score entry was “inactive”.
